Data published in US20220073613A1, “ACTIVATABLE MASKED ANTI-CTLA4 BINDING PROTEINS” (Xilio Development, Inc., priority 2018, published 2022).

Assays:
[1] = tested on: MC38 tumors; assay: MC38 tumor eradication and T cell population analysis (Example 4A); type: in vivo, C57Bl/6 mice
Description: C57Bl/6 mice with 50-100 mm^3 MC38 tumors were administered intraperitoneally a single dose of 200 μg of IgG2a control (BioXcel), parental anti-CTLA4 antibody reactive to murine CTLA4 (9D9.IgG2a, light chain comprising SEQ ID NO:237, heavy chain comprising SEQ ID NO:319), activatable masked anti-CTLA4 antibody reactive to murine CTLA4 (light chain comprising SEQ ID NO:238, heavy chain comprising SEQ ID NO:319), masked anti-CTLA4 antibody 1005 reactive to murine CTLA4 (light chain comprising SEQ ID NO:240, heavy chain comprising SEQ ID NO:319), or anti-CTLA4 antibody 1 cross-reactive with human CTLA4 and murine CTLA4 (light chain comprising SEQ ID NO:327, heavy chain comprising SEQ ID NO:366). Body weight and tumor size were measured biweekly.
C57Bl/6 mice with 50-100 mm^3 MC38 tumors were dosed with three […] doses on day 1, 4, and 8 with IgG2a control (BioXcel), parental anti-CTLA4 antibody (9D9.IgG2a, light chain comprising SEQ ID NO:237, heavy chain comprising SEQ ID NO:319 masked anti-CTLA4 antibody 2 (light chain comprising SEQ ID NO:238, heavy chain comprising SEQ ID NO:319), masked anti-CTLA4 antibody 1005 (light chain comprising SEQ ID NO:240, heavy chain comprising SEQ ID NO:319), or anti-CTLA4 antibody 1 cross-reactive with human CTLA4 and murine CTLA4 (light chain comprising SEQ ID NO:327, heavy chain comprising SEQ ID NO:366). On day 9, mice were sacrificed and tumors were dissociated using gentleMACS™ protocol “Tumor Dissociation Kit” (Milteni) and filtered through a 70 micron cell strainer and rinsed twice in PBS/2.5% FBS buffer to remove enzymatic buffer. […] and spleen cells were dissociated by gently grinding the tissue across a mesh. Red blood cells were lysed with ACK buffer (Thermo Fisher) prior to staining of the cells. Staining of cells was with fluorescently labeled anti-CD45 (BioLegend), anti-CD3 (BioLegend), anti-CD4 (BioLegend), anti-CD8 (BD Biosciences), anti-CD25 (BioLegend). Prior to staining with anti-FoxP3 (eBioscience), and anti-Ki67 (eBioscience) the cells were permeabilized. Stained cells were analyzed by fluorescent activate cell sorting (FACS) for the percentages of CD4+, CD8+, and CD25 Foxp3+(Tregs) cells of the live (Live/Dead Aqua purchased from Life) CD45 positive cells, as well as the percentage of these three cell populations that were Ki67 positive, a marker of cell proliferation.

[2] = tested on: MC38 tumors; assay: MC38 mouse colorectal carcinoma model, tumor and Treg analysis (Example 4B); type: in vivo, C57BL/6 mice
Description: The effects of activatable masked anti-CTLA4 antibodies on tumor growth as well as immune parameters in the tumor and in the periphery were investigated using a MC38 mouse colorectal carcinoma model, previously shown to respond to treatment with the 9D9 antibody. See Peggs K. S. et al., J Exp Med., 206:1717-1725, (2009) and Selby M. J., et al., Cancer Immunol Res., 1:32-42, (2013).
To assess anti-tumor efficacy, antibodies formulated in PBS were administered intraperitoneally (i.p.) on day 1 post-randomization at […] per dose in a volume of ≤250 μL. Tumor volumes were determined twice weekly. All mice were monitored individually and sacrificed upon either tumor volume reaching 1500 mm3 or 45 days post-randomization. To assess biological function of antibodies on regulatory T cells (Tregs) by FACS analysis as described below, tumor-bearing mice were administered antibody intraperitoneally on days 1, 4, and 8 post-randomization at […] per dose in a volume of ≤250 μL. The control antibody was muIgG2a (BioXcell). All mice were sacrificed on day 9; tumor and spleen were harvested for FACS analysis.
Mouse tumor samples were dissociated according to standard protocol by Tumor Dissociation Kit (gentleMACS) and passed through a 70 μm cell strainer. Spleen samples were dissociated with the back of a syringe in a 70 μm cell strainer. Red blood cells were lysed with ACK buffer (Lonza). Final cell suspensions were washed and resuspended in Staining Buffer (PBS pH 7.4, 2.5% FBS, 0.09% NaN3) at 2×10^7 cells/mL. Cells were treated with Mu Trustain fcX (BioLegend) to block Fc receptors prior to being stained with antibodies against CD45 (BioLegend), CD3 (BioLegend), CD4 (BioLegend), CD8 (BD Biosciences), CD25 (BioLegend), and Live/Dead Aqua (ThermoFisher). For intracellular staining, cells were fixed, permeabilized, and stained with antibodies against FoxP3 (eBioscience) and Ki-67 (eBioscience). Single color stains and FMOs were run for gating purposes.

[3] = molecular target: murine CTLA4 (muCTLA4hsIgG protein); assay: Low density antigen binding ELISA, with MMP2 activation (Example 3B)
Description: All ELISA were performed in a manner substantially similar to the description below or generally consistent with methods known in the art. Polysterene 96-well microplates (Thermo Fisher Scientific) were coated with 3 ng muCTLA4hsIgG protein (Abcam) per well and stored overnight at 4° C. Plates were washed with 0.1% Tween in TBS (TBS-T), blocked with 1% BSA (Fisher) in PBS for 2 hours at 4° C., and washed with TBS-T. Serial dilutions of tested antibody in 0.05% Tween+1% BSA in PBS (PBS-TB) were added to the plate and incubated at room temperature for 1 hour. After washing with TBS-T, HRP-conjugated goat anti-mouse Kappa light chain antibody (Abcam) diluted 1:4000 in PBS-TB was applied to the wells and incubated at room temperature for 1 hour. Plates were washed with TBS-T, chemiluminescent HRP substrate was applied to plate, and luminescence was recorded using a spectrophotometer (Synergy HT, BioTek). Data was analyzed with GraphPad Prism, version 7.02.
Parental anti-CTLA4 antibodies, masked anti-CTLA4 antibodies, and non-cleavable masked anti-CTLA4 antibodies were each diluted to 1 μM solution in cleavage buffer (150 mM NaCl; 50 mM Tris, pH 7.5; 10 mM CaCl2; 0.02% NP-40). Recombinant MMP2 (R&D Systems) activated with 1 mM p-aminophenylmercuric acetate […] for 1 hour at 37° C. was added to each antibody solution to a final concentration of 4 nM and incubated overnight at 37° C. […]

[4] = molecular target: T1, murine CTLA4-Fc (Mus musculus, UniProt P09793); assay: ELISA binding to murine CTLA4-Fc, with MMP2 cleavage (Example 3A); details: MMP2, 37° C. overnight
T1 construct: purchased R&D Systems
Description: ELISA plates were coated overnight in TBS with murine CTLA4-Fc (R&D Systems) and then washed with TBS with 0.05% Tween 20, and blocked with 1% BSA in PBS followed by washing with TBS with Tween 20. Dilutions of parental anti-CTLA4 antibodies and masked anti-CTLA4 antibodies in PBS were allowed to bind to CTLA4 for 60 minutes before washing with TBS Tween 20. Binding was detected with anti-muKappa-HRP (Abcam) and Super Signal Pico Chemiluminescent Substrate. Masked ratio was determined from the EC50 precleavage masked anti-CTLA4 antibody to the EC50 for parental anti-CTLA4 antibody.
Parental anti-CTLA4 antibodies and masked anti-CTLA4 antibodies were incubated with 6 nM of MMP2 (R&D Systems) in 150 mM NaCl, 50 mM Tris, pH 7.5, 10 mM CaCl2, 0.02% NP-40) at 37° C. overnight. Antibody dilutions were tested for binding to murine CTLA4-Fc by the ELISA described above and by reduced-SDS-PAGE analysis, using “Any Kd Stain-Free pre-cast polyacrylamide gels” (Bio-Rad).

[5] = multi-dose, compared to parental antibody (9D9.IgG2a)

Sequence of murine CTLA4 (muCTLA4hsIgG protein) (P09793 36-161 limits assumed): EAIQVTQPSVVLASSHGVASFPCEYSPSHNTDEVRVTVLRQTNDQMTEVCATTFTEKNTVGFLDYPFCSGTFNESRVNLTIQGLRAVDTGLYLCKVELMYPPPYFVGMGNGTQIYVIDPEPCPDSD
T1 sequence (P09793 with tags, fused parts or gaps limits assumed): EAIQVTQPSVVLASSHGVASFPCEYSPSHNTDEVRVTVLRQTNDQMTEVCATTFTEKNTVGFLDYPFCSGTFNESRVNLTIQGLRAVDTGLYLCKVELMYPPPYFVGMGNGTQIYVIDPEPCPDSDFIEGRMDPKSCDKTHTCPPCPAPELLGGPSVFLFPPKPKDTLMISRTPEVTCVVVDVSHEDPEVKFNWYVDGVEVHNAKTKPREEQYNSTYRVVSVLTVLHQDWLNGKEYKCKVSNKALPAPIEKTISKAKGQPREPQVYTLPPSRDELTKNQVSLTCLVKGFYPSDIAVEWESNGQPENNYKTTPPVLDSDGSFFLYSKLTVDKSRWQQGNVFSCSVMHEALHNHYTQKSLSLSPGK

- EC50 ([3]; treated with recombinant MMP2): 0.29 ± 0.03 nM
- fold lower binding to murine CTLA4 as compared to parental anti-CTLA4 antibody ([3]; without protease, listed as Masked 9D9): approximately 156 fold
- binding to murine CTLA4 after protease activation [4]: fully restored binding
B1: activatable masked anti-CTLA4 antibody: 9D9 masked with CNLIVEGHC via MMP2/7/9 cleavable linker; light chain SEQ ID NO:238, heavy chain SEQ ID NO:319 (antibody)
heavy: EAKLQESGPVLVKPGASVKMSCKASGYTFTDYYMNWVKQSHGKSLEWIGVINPYNGDTSYNQKFKGKATLTVDKSSSTAYMELNSLTSEDSAVYYCARYYGSWFAYWGQGTLITVSSAKTTAPSVYPLAPVCGDTTGSSVTLGCLVKGYFPEPVTLTWNSGSLSSGVHTFPAVLQSDLYTLSSSVTVTSSTWPSQSITCNVAHPASSTKVDKKIEPRGPTIKPCPPCKCPAPNLLGGPSVFIFPPKIKDVLMISLSPIVTCVVVDVSEDDPDVQISWFVNNVEVHTAQTQTHREDYNSTLRVVSALPIQHQDWMSGKEFKCKVNNKDLPAPIERTISKPKGSVRAPQVYVLPPPEEEMTKKQVTLTCMVTDFMPEDIYVEWTNNGKTELNYKNTEPVLDSDGSYFMYSKLRVEKKNWVERNSYSCSVVHEGLHNHHTTKSFSRTPGK
light: ACNLIVEGHCGGSVPLSLYSGGGDIVMTQTTLSLPVSLGDQASISCRSSQSIVHSNGNTYLEWYLQKPGQSPKLLIYKVSNRFSGVPDRFSGSGSGTDFTLKISRVEAEDLGVYYCFQGSHVPYTFGGGTKLEIKRADAAPTVSIFPPSSEQLTSGGASVVCFLNNFYPKDINVKWKIDGSERQNGVLNSWTDQDSKDSTYSMSSTLTLTKDEYERHNSYTCEATHKTSTSPIVKSFNRNEC
- proliferation of CD4+ cells in the periphery (spleen), % Ki67+ [1, 5]: reduced proliferation
- proliferation of CD8+ T cells in the periphery (spleen), % Ki67+ [1, 5]: reduced proliferation
- tumor volume ([1]; single dose of 200 μg intraperitoneally): equivalent efficacy in reducing tumor volume
- regulatory T lymphocytes (Tregs) population in the tumor ([1]; three doses on day 1, 4, and 8, day 9): preferentially depleted
- proliferating (Ki67+ FOXP3+) Tregs in the spleens ([2]; doses on days 1, 4, and 8, 24 hours after last dose): marginal increases
- intratumoral Treg abundance ([2]; doses on days 1, 4, and 8, 24 hours after last dose, flow cytometry): as effective in reducing Tregs as parental anti-CTLA4 antibody
- growth of subcutaneously implanted MC38 tumors ([2]; i.p. on day 1 post-randomization): induced tumor regression
